Source: US20220195021A1 (ANWITA BIOSCIENCES, published 2022)

Tests used:
monkey serum albumin [1] = target: T1, monkey serum albumin (monkey (cynomolgus monkey in paragraph 472), UniProt A2V9Z4 25-608); experiment: BLI (OCTET RED96), VHH-IgG1-Fc on protein A biosensor, pH 7.4
T1 construct: also called cynomolgus monkey serum albumin; CySA
Protocol: (§1) The VHH anti-albumin antibodies were evaluated for their ability to interact with human, monkey, and mouse serum albumins at different pH values, e.g., pH 7.4 or pH 5.5 to simulate the pH of an acidified endosome. Briefly, a VHH anti-albumin antibody was fused onto a human IgG1-Fc. The expressed protein was then loaded onto a protein A biosensor (OCTET® RED96). The biosensor was in turn dipped into a solution containing a human, monkey, or mouse serum at three or more different concentrations, e.g., 50, 100, or 200 nM, or 100, 200, or 400 nM. Primary experimental data was analyzed with global fitting to determine a dissociation constant (KD). The results are summarized in Table 7 (pH 5.5) and Table 8 (pH 7.4), wherein A represents a value no greater than 10 nM, B represents a value greater than 10 nM but no greater than 100 nM, and C represents a value greater than 100 nM but no greater than 500 nM.

mouse serum albumin = target: T2, mouse serum albumin (mouse, UniProt P07724 25-608); experiment: as above
T2 construct: also called MuSA
Protocol: as §1

human serum albumin [2] = target: T3, human serum albumin (human, UniProt P02768 25-609); experiment: BLI (OCTET RED96), VHH-IgG1-Fc on protein A biosensor, albumin in solution, pH 7.4; grade legend in paragraph 477
T3 construct: The immunogen was rice-expressed HSA (Sigma A9731); also called HSA
Protocol: as §1

monkey serum albumin [3] = target: T1, monkey serum albumin; experiment: as above
Protocol: as §1

human serum albumin [4] = target: T3, human serum albumin; experiment: BLI (OCTET RED96), VHH-IgG1-Fc on protein A biosensor, pH 7.4
Protocol: as §1

human serum albumin [5] = target: T3, human serum albumin; experiment: BLI (OCTET RED96), VHH-IgG1-Fc on protein A biosensor, albumin in solution, pH 5.5; grade legend in paragraph 477
Protocol: as §1

binding result (mouse serum albumin)	Binder	further results
no binding	anti-HSA VHH antibody A17 fused onto a human IgG1-Fc (Fc fusion, Llama VHH; also called Ab A17; not shown: human IgG1 Fc) QVQLVESGGELVQAGGSLRLSCVVSGRTFRTRTMGWFRQAPGKEREYVAHISANGPITDYSDSVKGRFAISRDNAKNTVNLQMNSLKPEDTAVYYCALHNGIGVRTVPSQYDSWGQGTQVTVSS	binding result (monkey serum albumin [1]): no binding
no binding	anti-HSA VHH antibody A2 fused onto a human IgG1-Fc (Fc fusion, Llama VHH; also called Ab A2; not shown: human IgG1 Fc) QVQLVESGGGLVQAGGSLRLSCAASGRSVSLYHVGWFRHTPGKEREFVAATAWHDGSTSYADSVKGRFTISRNNAKNTVYLQMNSLQPEDTAVYYCAGEAKLGGIYSRWRDYEYWGQGTQVTVSS	Kd (human serum albumin [2]): ≤ 10 nM; Kd (monkey serum albumin [3]): ≤ 10 nM
no binding	anti-HSA VHH antibody A6 fused onto a human IgG1-Fc (Fc fusion, Llama VHH; also called Ab A6; not shown: human IgG1 Fc) QVQLVESGGGLVQAGGSLRLSCAASGRSVSLYHVGWFRHTPGKEREFVAATAWHDGSTSYADSVKGRFTISRNNAKNTVYLQMNSLQPEDTAVYYCAGEAKLGGIYSRWRDYEYWGQGTQVTVSS	Kd (human serum albumin [2]): ≤ 10 nM; Kd (monkey serum albumin [3]): ≤ 10 nM
no binding	anti-HSA VHH antibody A18 fused onto a human IgG1-Fc (Fc fusion, Llama VHH; also called Ab A18; not shown: human IgG1 Fc) QEQLVESGGGLVQAGGSLRLSCAASTRTINIYAMAWFRQAPGKEREFVAAVTWSGLTRDYADSVKGRFTISRDNPKNTLYLQMNSLQPEDTAVYYCAAGRYSTGTHDYDYWGQGTQVTVSS	binding result (human serum albumin [4]): no binding; binding result (monkey serum albumin [1]): no binding
no binding	anti-HSA VHH antibody A11 fused onto a human IgG1-Fc (Fc fusion, Llama VHH; also called Ab A11; not shown: human IgG1 Fc) QVQVVESGGGLVQPGGSLRLSCAASGMSSANVMGWYRQVPGNQRELVARITSSGRTMYSDSVLGRFTISRGGAGNTADLQMNMLKPEDTAIYICNIRILGSFDPDSGYWGQGTQVTVSS	binding result (human serum albumin [4]): no binding; binding result (monkey serum albumin [1]): no binding
no binding	anti-HSA VHH antibody A13 fused onto a human IgG1-Fc (Fc fusion, Llama VHH; also called Ab A13; not shown: human IgG1 Fc) QVQLVESGGGSVQPGGSLRLSCAASGRNFNPMGWFRQAPGKQRESVAAIGTDGSTKYADSVKGRFTISRDNGKNTVYLQMNSLKSEDTAVYYCNVGGWGISWFPWGRGTQVSVSS	–
–	anti-HSA VHH antibody A8 fused onto a human IgG1-Fc (Fc fusion, Llama VHH; also called Ab A8; not shown: human IgG1 Fc) QVQLVESGGGLVQPGGSLRLSCAASGSTWSINTLAWYRQAPGKQRDLVARISSGGSTHYADSVKGRFTVSRDNAENTLVLQMNSLKPEDTAVYYCYAQSTWYPPSWGQGTQVTVSS	Kd (human serum albumin [5]): ≤ 10 nM
–	humanized anti-HSA VHH antibody A19 fused onto a human IgG1-Fc (Fc fusion, also called Ab A19; anti-HSA A19; not shown: human IgG1 Fc) EVQLVESGGGLVQPGGSLRLSCAASGSTWSINTLAWYRQAPGKQRDLVARISSGGSTYYADSVKGRFTISRDNSKNTLYLQMNSLRAEDTAVYYCYAQSTWYPPSWGQGTLVTVSS	Kd (monkey serum albumin [3]): ≤ 10 nM
no binding	anti-HSA VHH antibody A1 fused onto a human IgG1-Fc (Fc fusion, Llama VHH; also called Ab A1; not shown: human IgG1 Fc) QVQLVESGGGLVQPGGSLRLSCAASGRIFSTYAMGWFRQPPGKEREFVASINRSGDSTYYADSVKGRFTISRDNAKNTGYLQMSSLKPEDTAVYYCAADSDGIGWFNSFEYDYWGRGTQVTVSS	Kd (human serum albumin [2]): ≤ 10 nM; Kd (monkey serum albumin [3]): ≤ 10 nM
no binding	anti-HSA VHH antibody A4 fused onto a human IgG1-Fc (Fc fusion, Llama VHH; also called Ab A4; not shown: human IgG1 Fc) QVQLVESGGGLVQPGGSLRLSCAASGRIFSTYAMGWFRQPPGKEREFVASINRSGDSTYYADSVKGRFTISRDDAKNMGYLQMSSLKPEDTAVYYCAADSDGIGWFNSFEYDYWGRGTQVTVSS	Kd (monkey serum albumin [3]): ≤ 10 nM
no binding	anti-HSA VHH antibody A7 fused onto a human IgG1-Fc (Fc fusion, Llama VHH; also called Ab A7; not shown: human IgG1 Fc) QVQLVESGGGLVQAGGSLRLSCAASGRSVSLYHVGWFRHTPGKEREFVAATAWHDGSTSYADSVKGRFTISRDSAKNTVFLQMSSLQPEDTAVYYCAADPGGSSWSQPWYDYWGQGTQVTVSS	–
no binding	anti-HSA VHH antibody A16 fused onto a human IgG1-Fc (Fc fusion, Llama VHH; also called Ab A16; not shown: human IgG1 Fc) QVQLVESGGGLVQAGGTLRLSCTASGSTFRGNGMAWHRQAPGKEREFVAYMGMTDRITYAESVKGRFTLSRDDAKNRVYLHMNNLEVEDTAVYYCTAFGSWGQGTQVTVSS	binding result (monkey serum albumin [1]): no binding
no binding	anti-HSA VHH antibody A3 fused onto a human IgG1-Fc (Fc fusion, Llama VHH; also called Ab A3; not shown: human IgG1 Fc) QVQLVESGGGLVQAGGSLRLSCAASGRTFSIYDMGWFRQAPGKEREFVAATNLRGVSTRYADSVKGRFTISGDNAKNTVSLQMNSLIPEDTAVYYCAAAVSNWLAKDPSAYSYWGQGTQVTVSS	Kd (human serum albumin [2]): ≤ 10 nM
no binding	anti-HSA VHH antibody A9 fused onto a human IgG1-Fc (Fc fusion, Llama VHH; also called Ab A9; not shown: human IgG1 Fc) QVQLVESGGGLVQAGGSLRLSCAASGRTFSNDAMGWFRQAPGKERVFVATISWKSSTYYADSVKGRFTISRDHAKNTVYLQMNNLKPEDTAVYYCVADPYGLGFNPSDYDYWGQGTQVTVSS	Kd (human serum albumin [2]): ≤ 10 nM
no binding	anti-HSA VHH antibody A15 fused onto a human IgG1-Fc (Fc fusion, Llama VHH; also called Ab A15; not shown: human IgG1 Fc) QVQLVESGGGLVQPGGSLRLSCAASGFAFRGFGMSWVRQAPGKGFEWVSSINNGGSDTRYADSVKGRFTISRDNARNTLYLQMNSLKPEDTAVYYCAIGGPGASPSGQGTQVTVSS	–
no binding	anti-HSA VHH antibody A12 fused onto a human IgG1-Fc (Fc fusion, Llama VHH; also called Ab A12; not shown: human IgG1 Fc) EVQLVESGGGLVQPGGSLRLSCAASGFTFRGFGMSWVRRAPGKEFEWVSSINGGGEDTRYSDSVKGRFTISRDNARNTLYLQMNSLKPEDSAVYYCAIGGPGATPSGPGTQVTVSS	–
no binding	humanized anti-HSA VHH antibody A20 fused onto a human IgG1-Fc (Fc fusion, also called Ab A20; anti-HSA A20; not shown: human IgG1 Fc) QVQLVESGGGVVQPGGSLRLSCAASGFAFRGFGMSWVRQAPGKGLEWVSSINNGGSDTYYADSVKGRFTISRDNSKNTLYLQMNSLRAEDTAVYYCAIGGPGASPSGQGTQVTVSS	–
no binding	anti-HSA VHH antibody A14 fused onto a human IgG1-Fc (Fc fusion, Llama VHH; also called Ab A14; not shown: human IgG1 Fc) QVQLVESGGGLVQPGGSLRLSCAASGFTFRGFGMSWVRQAPGKGFEWVSSINSGGEDTRYSDSVKGRFTISRDNARNTLYLQMNSLKPEDTAVYYCAIGGAGATPSGQGTQVTVSS	–
no binding	anti-HSA VHH antibody A10 fused onto a human IgG1-Fc (Fc fusion, Llama VHH; also called Ab A10; not shown: human IgG1 Fc) QVQLVESGGGLVQAGGSLRLSCLASGGTFSSYAMGWFRQAPGKEREFVAAISWKSSTYYTDSVKGRFTISRDNAKNTVYLQMNSLTPEDTAVYYCAADPTGSYDQPWYDYWGQGTQVTVSS	–
